Laboratory results reported in patent US20030068675, “Position dependent recognition of GNN nucleotide triplets by zinc fingers” (published 2003).

Assays:
Test in all cases: EMSA
Conditions in all cases: tags: MBP fusion
ZFP SBS#526 = target: T1, ZFP SBS#526 (synthetic)
T1 chain: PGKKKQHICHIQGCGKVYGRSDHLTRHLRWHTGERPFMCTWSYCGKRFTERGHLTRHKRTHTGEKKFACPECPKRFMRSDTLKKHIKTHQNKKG
Outline: (§1)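 Purified ZFP was titrated against labeled double-stranded target (1 nM or lower, at least 10-fold below expected Kd) carrying the natural binding site with flanks. Binding buffer was 10 mM Tris pH 7.5, 100 mM KCl, 1 mM MgCl2, 0.1 mM ZnCl2, 5 mM DTT, 10% glycerol, 0.02% BSA, with equilibration for at least 45 min. Bound and free target were separated on a 10% polyacrylamide gel.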

ZFP SBS#739 = target: T2, ZFP SBS#739 (synthetic)
T2 chain: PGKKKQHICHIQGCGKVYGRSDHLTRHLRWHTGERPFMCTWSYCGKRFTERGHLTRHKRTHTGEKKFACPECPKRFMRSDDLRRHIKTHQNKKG
Outline: as §1

ZFP SBS#1276 = target: T3, ZFP SBS#1276 (synthetic)
T3 chain: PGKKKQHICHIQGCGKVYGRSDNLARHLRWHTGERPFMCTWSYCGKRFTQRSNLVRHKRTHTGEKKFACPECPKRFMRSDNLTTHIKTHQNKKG
Outline: as §1

ZFP SBS#1297 = ZFP SBS#1297 (synthetic)
ZFP SBS#1297 (synthetic), sequence (chain, as listed by the source): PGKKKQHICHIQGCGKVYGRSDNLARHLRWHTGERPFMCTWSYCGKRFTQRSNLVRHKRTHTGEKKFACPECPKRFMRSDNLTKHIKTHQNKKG
Outline: as §1

ZFP SBS#1302 = target: T4, ZFP SBS#1302 (synthetic)
T4 chain: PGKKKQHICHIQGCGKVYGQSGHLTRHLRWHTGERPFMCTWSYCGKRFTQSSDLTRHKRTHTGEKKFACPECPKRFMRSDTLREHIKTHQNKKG
Outline: as §1

ZFP SBS#1252 = target: T5, ZFP SBS#1252 (synthetic)
T5 chain: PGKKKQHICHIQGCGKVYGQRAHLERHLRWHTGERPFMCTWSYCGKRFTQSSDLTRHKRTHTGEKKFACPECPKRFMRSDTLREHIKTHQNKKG
Outline: as §1

ZFP SBS#1309 = target: T6, ZFP SBS#1309 (synthetic)
T6 chain: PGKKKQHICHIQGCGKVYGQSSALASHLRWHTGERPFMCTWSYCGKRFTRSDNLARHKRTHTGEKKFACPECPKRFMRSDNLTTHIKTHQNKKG
Outline: as §1

ZFP SBS#1310 = target: T7, ZFP SBS#1310 (synthetic, UniProt P08047)
T7 chain: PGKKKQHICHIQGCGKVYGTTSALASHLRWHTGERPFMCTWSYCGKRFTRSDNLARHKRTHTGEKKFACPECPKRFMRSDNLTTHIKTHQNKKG
Outline: as §1

ZFP SBS#1303 = target: T8, ZFP SBS#1303 (synthetic)
T8 chain: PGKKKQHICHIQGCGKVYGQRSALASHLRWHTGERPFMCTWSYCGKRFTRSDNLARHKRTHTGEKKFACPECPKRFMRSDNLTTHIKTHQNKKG
Outline: as §1

ZFP SBS#1313 = ZFP SBS#1313 (synthetic, UniProt P08047)
ZFP SBS#1313, sequence (P08047 other isoform, or with tags, fused parts or gaps): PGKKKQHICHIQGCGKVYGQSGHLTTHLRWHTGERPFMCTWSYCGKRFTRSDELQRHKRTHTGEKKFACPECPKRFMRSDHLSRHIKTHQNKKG
Outline: as §1

ZFP SBS#1312 = ZFP SBS#1312 (synthetic, UniProt P08047)
ZFP SBS#1312, sequence (P08047 other isoform, or with tags, fused parts or gaps): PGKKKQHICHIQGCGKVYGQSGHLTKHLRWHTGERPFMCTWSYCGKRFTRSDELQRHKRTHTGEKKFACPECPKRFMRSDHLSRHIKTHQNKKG
Outline: as §1

ZFP SBS#1294 = ZFP SBS#1294 (synthetic)
ZFP SBS#1294 (synthetic), sequence (chain, as listed by the source): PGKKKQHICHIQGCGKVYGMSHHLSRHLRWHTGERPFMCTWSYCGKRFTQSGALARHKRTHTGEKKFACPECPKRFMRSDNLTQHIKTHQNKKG
Outline: as §1

ZFP SBS#1293 = target: T9, ZFP SBS#1293 (synthetic)
T9 chain: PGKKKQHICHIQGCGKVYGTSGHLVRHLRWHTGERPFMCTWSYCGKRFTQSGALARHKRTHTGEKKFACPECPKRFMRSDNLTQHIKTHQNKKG
Outline: as §1

ZFP SBS#1292 = target: T10, ZFP SBS#1292 (synthetic)
T10 chain: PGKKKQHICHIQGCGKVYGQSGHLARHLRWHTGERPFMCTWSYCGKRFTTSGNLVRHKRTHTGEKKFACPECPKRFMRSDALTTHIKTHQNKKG
Outline: as §1

ZFP SBS#1270 = ZFP SBS#1270 (synthetic)
ZFP SBS#1270 (synthetic), sequence (chain, as listed by the source): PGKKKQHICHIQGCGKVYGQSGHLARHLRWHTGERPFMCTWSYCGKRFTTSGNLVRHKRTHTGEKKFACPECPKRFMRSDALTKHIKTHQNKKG
Outline: as §1

ZFP SBS#1311 = ZFP SBS#1311 (synthetic)
ZFP SBS#1311 (synthetic), sequence (chain, as listed by the source): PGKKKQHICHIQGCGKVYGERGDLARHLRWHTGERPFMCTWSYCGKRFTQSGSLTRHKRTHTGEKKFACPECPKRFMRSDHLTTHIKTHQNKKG
Outline: as §1

ZFP SBS#1308 = target: T11, ZFP SBS#1308 (synthetic)
T11 chain: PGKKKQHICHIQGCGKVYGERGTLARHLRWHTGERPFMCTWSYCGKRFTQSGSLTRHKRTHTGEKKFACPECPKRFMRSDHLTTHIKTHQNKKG
Outline: as §1

ZFP SBS#1272 = target: T12, ZFP SBS#1272 (synthetic)
T12 chain: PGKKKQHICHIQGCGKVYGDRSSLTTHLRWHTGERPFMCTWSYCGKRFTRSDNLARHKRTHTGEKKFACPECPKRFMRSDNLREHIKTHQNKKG
Outline: as §1

ZFP SBS#1273 = target: T13, ZFP SBS#1273 (synthetic)
T13 chain: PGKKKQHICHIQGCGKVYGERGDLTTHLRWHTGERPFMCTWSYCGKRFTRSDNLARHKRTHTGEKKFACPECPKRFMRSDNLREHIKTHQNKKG
Outline: as §1

ZFP SBS#1295 = target: T14, ZFP SBS#1295 (synthetic)
T14 chain: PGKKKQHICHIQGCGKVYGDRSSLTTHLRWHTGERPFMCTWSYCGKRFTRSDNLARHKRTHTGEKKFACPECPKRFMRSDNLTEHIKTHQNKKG
Outline: as §1

ZFP SBS#1296 = target: T15, ZFP SBS#1296 (synthetic)
T15 chain: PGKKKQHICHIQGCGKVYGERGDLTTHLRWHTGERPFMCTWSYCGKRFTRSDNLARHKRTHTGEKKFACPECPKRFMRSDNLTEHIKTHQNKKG
Outline: as §1

ZFP SBS#1306 = target: T16, ZFP SBS#1306 (synthetic)
T16 chain: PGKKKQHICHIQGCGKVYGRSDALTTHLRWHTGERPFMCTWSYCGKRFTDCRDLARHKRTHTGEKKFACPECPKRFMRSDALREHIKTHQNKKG
Outline: as §1

ZFP SBS#1315 = ZFP SBS#1315 (synthetic)
ZFP SBS#1315 (synthetic), sequence (chain, as listed by the source): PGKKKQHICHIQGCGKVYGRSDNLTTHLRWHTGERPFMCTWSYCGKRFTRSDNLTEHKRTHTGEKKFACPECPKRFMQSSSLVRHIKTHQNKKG
Outline: as §1

ZFP SBS#1314 = ZFP SBS#1314 (synthetic)
Outline: as §1

ZFP SBS#1267 = ZFP SBS#1267 (synthetic)
ZFP SBS#1267 (synthetic), sequence (chain, as listed by the source): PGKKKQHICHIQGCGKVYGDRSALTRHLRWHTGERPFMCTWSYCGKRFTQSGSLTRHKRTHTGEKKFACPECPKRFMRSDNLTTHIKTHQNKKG
Outline: as §1

ZFP SBS#1289 = ZFP SBS#1289 (synthetic)
ZFP SBS#1289 (synthetic), sequence (chain, as listed by the source): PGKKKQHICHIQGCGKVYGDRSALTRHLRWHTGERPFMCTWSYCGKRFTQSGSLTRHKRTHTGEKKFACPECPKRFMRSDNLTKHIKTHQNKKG
Outline: as §1

ZFP SBS#1248 = target: T17, ZFP SBS#1248 (synthetic)
T17 chain: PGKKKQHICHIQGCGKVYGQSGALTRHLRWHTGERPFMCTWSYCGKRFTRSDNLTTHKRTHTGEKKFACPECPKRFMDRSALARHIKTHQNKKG
Outline: as §1

ZFP SBS#1300 = ZFP SBS#1300 (synthetic)
ZFP SBS#1300 (synthetic), sequence (chain, as listed by the source): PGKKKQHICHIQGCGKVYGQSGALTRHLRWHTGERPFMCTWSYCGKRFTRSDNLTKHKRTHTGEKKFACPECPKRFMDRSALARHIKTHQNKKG
Outline: as §1

ZFP SBS#1239 = target: T18, ZFP SBS#1239 (synthetic)
T18 chain: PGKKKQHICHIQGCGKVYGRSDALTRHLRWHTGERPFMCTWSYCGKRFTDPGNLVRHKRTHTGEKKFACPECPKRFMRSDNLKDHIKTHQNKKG
Outline: as §1

ZFP SBS#1298 = ZFP SBS#1298 (synthetic)
ZFP SBS#1298 (synthetic), sequence (chain, as listed by the source): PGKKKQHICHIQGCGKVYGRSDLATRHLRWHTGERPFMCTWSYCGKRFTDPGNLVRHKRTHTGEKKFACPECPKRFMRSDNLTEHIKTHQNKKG
Outline: as §1

ZFP SBS#1290 = ZFP SBS#1290 (synthetic)
ZFP SBS#1290 (synthetic), sequence (chain, as listed by the source): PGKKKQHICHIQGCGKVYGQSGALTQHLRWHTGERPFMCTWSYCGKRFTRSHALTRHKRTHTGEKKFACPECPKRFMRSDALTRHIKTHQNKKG
Outline: as §1

ZFP SBS#1291 = ZFP SBS#1291 (synthetic)
ZFP SBS#1291 (synthetic), sequence (chain, as listed by the source): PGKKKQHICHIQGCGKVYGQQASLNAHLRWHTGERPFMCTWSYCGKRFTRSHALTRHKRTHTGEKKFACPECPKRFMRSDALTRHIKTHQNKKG
Outline: as §1

ZFP SBS#505 = target: T19, ZFP SBS#505 (synthetic)
T19 chain: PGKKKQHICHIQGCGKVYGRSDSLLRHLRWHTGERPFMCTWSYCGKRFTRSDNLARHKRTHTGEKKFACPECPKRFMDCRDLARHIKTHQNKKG
Outline: as §1

ZFP SBS#504 = target: T20, ZFP SBS#504 (synthetic)
T20 chain: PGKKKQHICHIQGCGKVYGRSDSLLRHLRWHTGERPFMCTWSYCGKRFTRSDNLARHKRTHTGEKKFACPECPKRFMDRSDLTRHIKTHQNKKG
Outline: as §1

ZFP SBS#503 = target: T21, ZFP SBS#503 (synthetic)
T21 chain: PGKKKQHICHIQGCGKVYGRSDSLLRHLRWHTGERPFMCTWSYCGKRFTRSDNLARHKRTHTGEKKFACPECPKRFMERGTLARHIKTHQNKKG
Outline: as §1

ZFP SBS#440 = target: T22, ZFP SBS#440 (synthetic)
T22 chain: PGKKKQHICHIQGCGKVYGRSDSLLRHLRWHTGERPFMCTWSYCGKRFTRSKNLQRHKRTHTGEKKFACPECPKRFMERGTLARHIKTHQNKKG
Outline: as §1

B1: GCGGGCGGGC (dsDNA)
DNA 1: GCGGGCGGGC
DNA 2: GCCCGCCCGC
Binder B1 has a Kd (ZFP SBS#526) of 8 nM and a Kd (ZFP SBS#739) of 16.5 nM.

B2: TAGGAAGAG (dsDNA)
DNA 1: TAGGAAGAG
DNA 2: CTCTTCCTA
Binder B2 has a Kd (ZFP SBS#1276) of 0.685 nM and a Kd (ZFP SBS#1297) of 0.05 nM.

B3: CCGGCTGGA (dsDNA)
DNA 1: CCGGCTGGA
DNA 2: TCCAGCCGG
For B3, the Kd (ZFP SBS#1302) was 0.05 nM and the Kd (ZFP SBS#1252) was 0.153 nM.

B4: TAGGAGTTT (dsDNA)
DNA 1: TAGGAGTTT
DNA 2: AAACTCCTA
For B4, the Kd (ZFP SBS#1309) was 0.184 nM, the Kd (ZFP SBS#1310) was 0.075 nM and the Kd (ZFP SBS#1303) was 0.088 nM.

B5: GGGGCGTGA (dsDNA)
DNA 1: GGGGCGTGA
DNA 2: TCACGCCCC
B5 was tested, and the Kd (ZFP SBS#1313) was 0.09 nM and the Kd (ZFP SBS#1312) was 0.23 nM.

B6: AAGGTAGGT (dsDNA)
DNA 1: AAGGTAGGT
DNA 2: ACCTACCTT
B6 showed a Kd (ZFP SBS#1294) of 2.75 nM and a Kd (ZFP SBS#1293) of 0.457 nM.

B7: TTGGATGGA (dsDNA)
DNA 1: TTGGATGGA
DNA 2: TCCATCCAA
B7 gave a Kd (ZFP SBS#1292) of 4.12 nM and a Kd (ZFP SBS#1270) of 0.4 nM.

B8: TGGGCAGCC (dsDNA)
DNA 1: TGGGCAGCC
DNA 2: GGCTGCCCA
For B8, the Kd (ZFP SBS#1311) was 0.91 nM and the Kd (ZFP SBS#1308) was 0.305 nM.

B9: CAGGAGTCC (dsDNA)
DNA 1: CAGGAGTCC
DNA 2: GGACTCCTG
For B9, the Kd (ZFP SBS#1272) was 0.04 nM, the Kd (ZFP SBS#1273) was 0.1 nM and the Kd (ZFP SBS#1295) was 0.116 nM. The Kd (ZFP SBS#1296) was 37 nM.

B10: CTGGCCTTG (dsDNA)
DNA 1: CTGGCCTTG
DNA 2: CAAGGCCAG
With B10 the Kd (ZFP SBS#1306) was 2.29 nM.

B11: GTACAGTAG (dsDNA)
DNA 1: GTACAGTAG
DNA 2: CTACTGTAC
Work on B11 yielded a Kd (ZFP SBS#1315) of 9.27 nM and a Kd (ZFP SBS#1314) of 3.09 nM.

B12: TAGGCAGTC (dsDNA)
DNA 1: TAGGCAGTC
DNA 2: GACTGCCTA
B12 showed a Kd (ZFP SBS#1267) of 6 nM and a Kd (ZFP SBS#1289) of 1.37 nM.

B13: GTCTAGGTA (dsDNA)
DNA 1: GTCTAGGTA
DNA 2: TACCTAGAC
In the case of B13, the Kd (ZFP SBS#1248) is reported as 5.14 nM and the Kd (ZFP SBS#1300) is reported as 0.46 nM.

B14: CAGGACGTG (dsDNA)
DNA 1: CAGGACGTG
DNA 2: CACGTCCTG
B14 was tested, and the Kd (ZFP SBS#1239) was 0.144 nM and the Kd (ZFP SBS#1298) was 0.05 nM.

B15: GTGGTGATA (dsDNA)
DNA 1: GTGGTGATA
DNA 2: TATCACCAC
Work on B15 yielded a Kd (ZFP SBS#1290) of 24.1 nM and a Kd (ZFP SBS#1291) of 20.6 nM.

B16: GCCGAGGTGC (dsDNA)
DNA 1: GCCGAGGTGC
DNA 2: GCACCTCGGC
B16 gave a Kd (ZFP SBS#505) of 65 nM, a Kd (ZFP SBS#504) of 25 nM and a Kd (ZFP SBS#503) of 50 nM. The Kd (ZFP SBS#440) was 40 nM.
